Assay results from publication PMC6925217, “PtomtAPX, a mitochondrial ascorbate peroxidase, plays an important role in maintaining the redox balance of Populus tomentosa Carr” (Scientific Reports, 2019).

Substrate: O=C1O[C@H]([C@@H](O)CO)C(O)=C1O
Assay: steady-state Michaelis-Menten kinetics
Assay type: biochemical, Populus tomentosa
Details: fixed H2O2 concentration
Excerpt: steady-state Michaelis-Menten kinetics on PtosAPX

B1: PtosAPX (Populus tomentosa) (protein)
chain: ASDAAQLKSAREDIKELLKSKFCHPILVRLGWHDAGTYNKNIEEWAKRGGANGSLRFEIELKHAANAGLVDALKLIQPIKDKYSGVTYADLFQMASATAIEEAGGPKIPMKYGRVDVSVPDECPEEGRLPDAGPPKPADHLRGVFYRMGLDDKEIVALSGAHTLGRSRPERSGWGKPETKYTKNGPGAPGGQSWTAEWLKFDNSYFKDIKERKDEDLLVLPTDAALFEDPSFKVYAEKYAEDKEAFFKDYAEAHAKLSNLGAKFDPPEGIMLDGVAGEKFVAAKYSSGKD
notes: ORF minus N-terminal targeting peptide, pET30a, E. coli, purified; 39 kDa on SDS-PAGE; full ORF 1,086 bp; homologue of P. trichocarpa JGI 209946
- Km: 4.30 ± 1.81 mM
- Vmax: 850 µM/min
- kcat: 15000 s⁻¹
- kcat/Km: 3.48e+06 M⁻¹ s⁻¹
